# Assay results published in patent US20240261340A1, “Cutibacterium Acnes Biomimetic, Prebiotic, Probiotic and Postbiotic Compositions for Treatment of Skin Conditions” (Johnson & Johnson Consumer Inc., priority 2023, published 2024).
# B1: Adiponectin (protein, UniProt Q15848 19-244, looked up)
# Adiponectin: ETTTQGPGVLLPLPKGACTGWMAGIPGHPGHNGAPGRDGRDGTPGEKGEKGDPGLIGPKGDIGETGVPGAEGPRGFPGIQGRKGEPGEGAYVYRSAFSVGLETYVTIPNMPIRFTKIFYNQQNHYDGSTGKFHCNIPGLYYFAYHITVYMKDVKVSLFKKDKAMLFTYDQYQENNVDQASGSVLLHLEVGDQVWLQVYGEGERNGLYADNDNDSTFTGFLLYHDTN
# notes: known in the literature to induce lipid production in cell cultures; positive control (Sigma)
# Tested on: Normal Human Epidermal Keratinocytes (NHEK)
# Assay: Lipid accumulation fluorescence assay (AdipoRed) on NHEK total lipids
# Format: cell-based
# Conditions: 10 μg/ml, positive control
# Description: Lipid accumulation using a fluorescence assay was then assessed. In particular, following the results of the transcriptomic analysis, NHEK were treated for 6 days with conditioned media at concentrations of 0.1, 0.5, 1, and 2%. Adiponectin 10 μg/ml (Sigma, St Quentin Fallavier, France), known in the literature to induce lipid production in cell cultures, was used as positive control. To quantify and visualize total lipids after the 6 days of treatment, cells were treated with AdipoRed™ Assay Reagent (Lonza, Verviers, Belgium) a lipophilic reagent which fluoresces (excitation: 485 nm, emission: 572 nm). The intensity of the fluorescence is proportional to the lipid concentration and can be measured using a spectrophotometer (Envision, Perlin Elmer, Villebon-sur-Yvette, France). Images were acquired using a fluorescence microscope (Axio imager, ZEISS, Rueil Malmaison France) with magnification ×20.
# Adiponectin induced an increase in fluorescence signal after 6 days of treatment (+25%) which validated the test. […] This experiment was repeated increasing the concentration of the conditioned media to 5% and 10% and reducing the time of treatment to 1 day. Non-conditioned media at 5% and 10% were also tested as negative controls and Adiponectin (10 μg/ml) as positive control.
molecule,measurement,setting,value
B1,increase in fluorescence (total lipids),1 day of treatment,250%
same,increase in fluorescence signal (total lipids),6 days of treatment,+25%
